Test: label from the status in PepcDB records

| Sequence | protein production |
| --- | --- |
| MKISQLLSLDTIKLNLAASNKNEVIDQLVDVLWDAGKLTDKNLYKEEILKRESLSSTGIGERIAIPHAKTKAVKNASLALGIYKYGVDYDSLDGEPVNIVFMIAAPAGANDEHLETLSRLSVLLMNPDFKNGLLNAKTPEEVISLLDKFEENEESDETQASNEAENNSNKKYILAVTACPTGIAHTYMAADSLNKTAKEMDVHIKVETNGSTGVKNRLTQEDIDKADGIIVAADKQVEMARFNGKKVVIVPVVQAMKRPQELINEALSGSAPVYSHSGDSSNQSSGKTERRGFYKHLMNGVSNMLPFVVGGGILIAISFMFGIHSAEINDPTFNPIAKLLKDIGGGNAFFLMIPVLAGFIGSSIADRPGFAPAMVGGLIAANSGSGFLGGLIAGFLGGYVVVLLKKIFSKLPQSLEGIKPVLLYPLFGILITGALMYLVIVGPVTALNNNIAIWLQNMGTGNLVLLGIVLGGMMAIDMGGPINKAAFTFGIAMIASGNYYPHAAIMAGGMVPPLATALATTFFKNKFTKDERDAGTTNYIMGLTFITEGAIPFAAADPFRVIPACVIGSAIAGGLSMVFKIGLPAPHGGIFVVPVVEGNPLLYLLSILVGSIVAALIIGFLKKPVNEINK | failed |
| MKITILSGGTGTPKLIQGFKEILPNEDISVIVNTGEDTYIGDIYLSPDIDTVLYTFSNLINDETWYGLKGDTFFCHEQLKNFGFDEVLRIGDKDRALKMHKTSLLKKGVPMSEIVDIERKSLSINSKIYPMSDEKIESKVLIEENNEKILLKFHDFWVSRRGNAKVLDIFYENSNYAKAADGVLKAIEESDFVIIGPSNPITSIGPILSISEIKDALKEKLVFAVSPIVGENPVSGPAGTLMHAKGYPVNAVGVYEYYKDIVDVLVLDNSDINKKKEMNCEVLYANTIMKTIDDKITLARNILDYYKSR | failed |
| MKITMRVSVPLSPRQAASQPVPSHRCLHVWPFIRPSLLRPELTMPSGCRCLNLVCLLCILGATSQPARADDCSSHCDLAHGCCAPDGSCRCDPGWEGLHCERCVRMPGCQHGTCHQPWQCICHSGWAGKFCDKDEHICTSQSPCQNGGQCVYDGGGEYHCVCLPGFHGRGCERKAGPCEQAGFPCRNGGQCQDNQGFALNFTCRCLAGFMGAHCEVNVDDCLMRPCANGATCIDGINRFSCLCPEGFAGRFCTINLDDCASRPCQRGARCRDRVHDFDCLCPSGYGGKTCELVLPAPEPASVGTPQMPTSAVVVPATGPAPHSAGAGLLRISVKEVVRRQESGLGESSLVALVVFGSLTAALVLATVLLTLRAWRRGICPTGPCCYPAPHYAPARQDQECQVSMLPAGFPLSPDLPPEPGKTTAL | failed |
| MKKAIYLLILCIFGLFSVYFTYAENISDISNTTSKNISSSNISHNNIIYSNINYNEILYIIVKNNTAYVKDVINGTNNPYHIKSAGIILYEKIYGYNYSNLLYRNSSNSLIFYYNFSVDKINYTINITIPQIEDYVGSLGGPIRMRIPPNNVKIIIVAENKLAETNGKYILEYNKTDKKVISLIYLDNVSSICNIYYTKFFNSSEFYGYAVANVTSITENRTSYTIKNPKGTFTFDRKYNVFVSNKTAYLKEPYLYVKLYNSTIDDIIILENNKISENSTKFMSNYLLSFIGIIIGFGIIGLAIYLSKRGRK | failed |
| MKKAKLIFKDNTPFSLDFDDFYFNFKDGLNESKFVYTHSFEWKNQENFIIAESGFGIGLNFFLTLKRFLETTPSKRPKKLFYISVEAFYIEKEQLREIYQKLEFYEEFKELLEQFLKFYPKAKEGIYRFYFEDCFLDLVFEDIAVLKELDFKADVWYLDGFSPNKNSQMFDENLIFEVARLSKKNTQICTFSSASFLQKNLKKYGFRVEKTKGFRKREMIKAYLENELEFKDKEAYFSRTFSSLKNKKVAIIGAGISSAVLAYELSLRGFEIDIFEKHLELGKGASGNESGILSSLILKPKVNLGEFSELSFIEASRFYRQILDLEFKGVVEFAHNDLMQERFDTQRENVLFKISKNQAFLEEGGVIFPKKLVKNLFEKSKACIYFNHEFQAYKFENGCFSLKFKNDVVKSDYAVLIYAMGADAKDFVFYDEMKLSKVRGQVTHLKPFLDTPFPLSSKAYICPVKDDLQVIGASYDRLNASLESKEEDDKQNIENIADFMDKNTKLEIIGSKVGFRSYSSDRFMIVGNAYDEAFYKEEYKALLWTKNKEQKPAKMSCNLYFNFAHGSRGFSTSVLAARYLCALINNEPLCLEKKYIHAIHPARFLIRKLKKGL | failed |
| MKKATMLTYLEEQLEKHLGDYEVGLDWDRKNHTIEVIVRLYAENNEQVAIDDVDGTLSEEEFIEFEDGLLFYNPQKSVVDDEEYLVTIPYEGKKGLRKAVLDGFIHYLKVVLDEGQSDLLDFLSDETAEVFELHWEPADFEAMIKKVAETEKEQWIAYPSY | not failed |
| MKKAVFSTLVIGLLSFQAHADYVAQPQSIAAQAARYSVMSIPELTQAAKSGQAGAQFYLGAHYQHGKNIPKDDKQAFTWFKAAADQGLSPAQLNVGRMYADGVGVAKNEAMARKYFEKAASNGDNRASYNLAMMEEQKKNYQGAYQWYELSTRDGMLDNKVINMSQSKKTALAANLTQDQIRQAVDRADKWIQAQ | failed |
| MKKDFASVTPAGKKTSVRWFIVFMLFLVTSINYADRATLSITGDSVQHDLGLDSVAMGYVFSAFGWAYVIGQLPGGWLLDRFGSKTIIALSIFFWSFFTLLQGAIGFFSAGTAIILLFALRFLVGLSEAPSFPGNGRVVASWFPSSERGTASAFFNSAQYFAIVIFPPLMGWLTHSFGWHSVFVVMGIAGILLAVIWLKTVYEPKKHPKVNEAELAYIEQGGGLISMDDSKSKQETESKWPYIKQLLTNRMLIGVYIAQYCITTLTYFFLTWFPVYLVQARGMSILEAGFVASLPALCGFAGGVLGGIVSDILLKKGRSLTFARKVPIIAGMLLSCSMIVCNYTDSAWLVVVIMSLAFFGKGFGALGWAVVSDTSPKECAGLSGGLFNTFGNIASITTPIIIGYIVNATGSFNGALVFVGANAIAAILSYLLLVGPIKRVVLKKQEQDPDQSLPV | failed |
| MKKEKLFSLLRYIDNGSLECITSLFLITLSLTMPAIGLGNFGIQVIALSMIPLINVRFPVAALPLALVATVWLNAWADHLLLTGFIVYLAVEYATSRGRFALALILGVEWILIAYGVALERPLEAKDSPSLITEILLILVAAGTGAGRWKILSERKQRAITQQEIIKKIRTDIAHYLHDSMARSLAIMIVQSKLTELEPDPKKIQEKLNSIAKIGQEAVADLHQLVRHLVVEESAEKATAFGAWAAVSIHDTVNSAIQLLVDAGHVVSFDSRKKNYKLDHIAETAFALAFNEAVCNAIKHSPPKANVTIRITEKAQSLQILVMNPIGDWHANGESAIPGVGIGVESLTRRIRNIKGQVCVTSLQGYWKVVISLPLKCEDS | failed |
| MKKFKLSSFLPLSYILLLVLVSPLYDVLNKSTVHAVDVTTVVDDWIPFVKAFIIPYLLWFPYLYGALIYYCFADRKQYYVTLSSVIFGKLACFSIYYFWQTTVPRPTVVGTDVFSELVRYIYSIDQPVNCFPSIHVLTTFVIMLAAFKRREQHAFEYYILTFFGTLIILSTLFTKQHAFLDAVSGMTLASILYFGVQLLLAKEPIKVPVKQNHKM | failed |
| MKKFVCTVCGYIHEGDAAPAQCPVCKVGADKFEEMKGEMVWADEHRIGVAQGVDAEIIEGLRANFTGECTEVGMYLAMSRQADREGYPEVAEAYKRIAFEEAEHAAKFAELLGEVVVADTKENLRVRVDAEYGATDGKLKLAKRAKELGLDAIHDTVHEMCKDEARHGKAFLGLLNRHFGKLEHHHHHH | not failed |
| MKKGIQPLKWKDVPALAVLGFFSVTLHHLLINTGQQYVTAVASSILSQSIPLFTFIISALLFKEQISFKQWLCILLGLCGAVLVVSGDHGFGMPSPYSLLIVLAAIAWGLYFNLYKKFALNYDALSMMCYIIWFGTLPLLFYSAHLPSEILHATWQANMSVVLLGIFPSAMAYVLWGYVLKNMPLTIASNFLYCSPIVAMSLAVLFLNEKPSIIVLLGGVIIVGSLVWMNWGRKK | failed |
| MKKILILFFLLFTVNAFTQNYADYMSSGLDAYARSDWSSALFSFQKAMEVSKNSLDEPLYWLIMANASARNYTVALNDIETFLKRFPNSSKAAEVIYQQGRICCLSAKHDQSINILYGFLRKYPNHRQTASAYYWIGENLYMVGRLKDARTIFSRVIIDYPSSAKVEPSRYKIALIDQASTQDELLKLLKISHEELLKLSEESEKNKKIYEQTIAAYQRQSSDAGGDMRIAELSEQLKMERKHNEELHDQLVMLELKNQELLATLAKMDAKYTSEMAADGETPAADYSDPKAKRAAIEALIKKAKILQSMYNQLLEGNGQ | failed |
| MKKILVLGGAHIDRRGMIETETAPGASNPGSWMEEAGGGGFNAARNLSRLGFEVRIIAPRGGDVTGEVVAEAARQAGVEDTPFTFLDRRTPSYTAILERDGNLVIALADMDLYKLFTPRRLKVRAVREAIIASDFLLCDANLPEDTLTALGLIARACEKPLAAIAISPAKAVKLKAALGDIDILFMNEAEARALTGETAENVRDWPNILRKAGLSGGVVTRGASEVVAFNGTEKAILHPPLIREVKDVTGAGDAMASGYLAAIAEGKTIREALRQGAAAAAITVQSSFATSQDLSKDSVEAMLGLVPQAEMLA | not failed |
| MKKITKMVISSVLATVLMTACSQSSQNGQSDVKHIGILQYVEHPSLTATRKGFIKELAKEGYKDGKNIKIEYKNAQGDQSNIQSISEKLIKDNKLVLGIATPAAQSLTTVSTETPILFTAVTDPVSAELVKSMKKPEGLATGTSDMSPIKKQVSLLRKVMPKVKRVGIMYTTSERNSEVQVKQAKKIFQEAGIKTSVKGISSTNDVQDTAKSLMSKTEVIFVPTDNIIASSVTLLGNLSKELKVPVVGGSADMVPSGLLFSYGADYEALGRQTARQAVKILKGKDVAKVPSEYPQNLKVVVNEDMAKELGIDVSSIKNNK | failed |
| MKKIYIILLILFVILISLIGASILLVMSLSGENVDLFGGEKIAKVYLCNEIYFDYNQGDGIFPQQKKDARYYINLLDDLEKDDSVKGVLLVVNSPGGEVIASEKLARKVEELAKKKPVVVYVEGLDASGAYMVSAPADYIVAEKHSIVGSIGVRMDLMHYYGLMKKLGINVTTIKAGKYKDIGSPFRPMTKEEKEYLQKMINETYMDFVKWVAEHRHLSINYTLKIADGKIYSGEDAKKVGLVDEVGTEEDALKKLEQLANVSNPEIVEYGLEENKGLFGLTYYLGYGIGKGIGEVLYGMEKINGRVELLSLEHHHHHH | failed |
| MKKKKVIASIVAVCFSLALLSTWVMIFGCMKRGEQELHANTSVEIPDMSSIPGCVQNGGQLMYRGNIYKYDPANINILFMGIDARGEDESIGQADMLALVVINTEKDTVKCICINRDSIGPVAIYDISGKAATTKNVQIALAYSYGKSQSEGRGLEMNTVSKLLHGIPIHGSVSVDIDGIGGINELAGGITLTALEDVPKAGIVKGEEVTLNDEQAMYYVTERDSASTDIGTNENRMSRQKQYISAWCDAVQQQIKKNPFKIFKMYDSVQGYVDTDISRNSMLYLAKVLKRVQFGEGDIYTVSGDYERENYYDKYLIDEDKLTEMMIETFYRKTE | failed |
| MKKKLLNYLILLACLATVSVSCSGSAQAAVLGDDYPFSWKYGGFGVDPWTMYWRQCTSFAAYRLSNTNGFTLPIGYGNAITWGNIARANGHRVDMNPAVGSIAWFSAGVNGAGHMGHVAWVAEVHGDQVTIEEYNYDAGQGPEKYHKRSFHKSQVSGYIHFKDLESGTQNGNPTNSSIKVGDSVRFTGTFRVTSVSGNTITSQDLAGGTPTKHNIVDPSPVLEVDAQGNPTSDQYLNPGETFTIPGNFKVLAIDPPSDGILVQIGNLKTWVTQSVLEKILEHHHHHH | not failed |
| MKKKSLIILSIIVLIFVCITLYLTREHIMVFYKLITNGEVVKSYLERFGPWAAVIFFVFQILQVVIFFIPGEVIQAAGGYIFGALGGTLLSFFGIAVGSAILFYICQKFGKKLVQRFVPKDMYDKLEKILNSPKFKLILVILFFLPGAPKDSLIMVCALSNITIGHFIIFSMIGRIPALVASSFMGANLAEGNIVGVIIIGVIALIACALGVIFRKDVFKYMEKL | failed |
| MKKLFFIFLGSCTFALGTLGIFLPLLPTTGFYLLTAFFWMRSSDKLYNKFLASSYYQKYIQEAFFEKKITRKGKWKLFISMFLLFAIPCLIVRNTLMTTTLAIVYLAHVIGLSWYWRPKKKALELDQE | failed |
